These results are taken from patent US8703708 (CINCINNATI CHILDREN S HOSPITAL MEDICAL CENTER, dated 2014).

In experiment [1] the target is T1, Lrp5 (endogenous, in mouse kidney) (mouse, UniProt Q91VN0 31-1614).
T1 construct: whole, on cells; Endogenous receptor in whole d5 post I/R kidney; The complex was detected in kidney lysate by Western blot; also called Lipoprotein receptor like protein 5
The experiment is described as follows: Western blot for S-tag proteins in whole d5 post I/R kidney from mice treated with Dkk2-C2. Here is the method: (§1) For detection of Dkk2-C2, western blots of 50μg of whole kidney protein lysate per lane were incubated with anti-S-tag antibodies (1:500, BD Biosciences) followed by secondary HRP conjugated antibodies. After detection and stripping blots were re-detected with anti-beta-actin (1:1000, Santa Cruz Biotechnology). The purified recombinant Dkk2C contained only one single band in SDS-PAGE.
(§2) This C2 recombinant form of Dkk2 was administered from d0 to WT mice that were uninjured or which had kidney injury. Kidneys were harvested on day 2 and day 7 after injury and assessed quantitatively for injury. […] After detection and stripping blots were re-detected with anti-beta-actin (1:1000, Santa Cruz Biotechnology). […] When systemic delivery of Dkk2 was delayed until after peak injury at d1, it was nevertheless detectable in the kidney (FIG. 5G) and it retained the capacity to improve kidney function as assessed by plasma creatinine levels (FIG. 5D). […] To understand whether Dkk2 was functioning to augment the canonical pathway, Wnt signalling in kidney cortex of d5 post I/R mice was assessed by detection of phosphorylated Lrp6 since canonical signalling requires phosphorylation of this co-receptor (Zeng et al., Nature 438(7069):873-877 (in eng) (2005)) (FIG. 5E). pLrp6 was not detected in healthy adult kidney cortex (FIG. 1G) but was robustly detected in kidney cortex following injury.

Experiment [2] has as its target T2, Lrp6 (endogenous, in mouse kidney) (mouse, UniProt O88572 20-1613).
T2 construct: whole, on cells; Endogenous receptor in whole d5 post I/R kidney or kidney cortex; also called Lipoprotein receptor like protein 6
The description is as above. How it is done: as §1, §2

T1 sequence (Q91VN0 31-1614): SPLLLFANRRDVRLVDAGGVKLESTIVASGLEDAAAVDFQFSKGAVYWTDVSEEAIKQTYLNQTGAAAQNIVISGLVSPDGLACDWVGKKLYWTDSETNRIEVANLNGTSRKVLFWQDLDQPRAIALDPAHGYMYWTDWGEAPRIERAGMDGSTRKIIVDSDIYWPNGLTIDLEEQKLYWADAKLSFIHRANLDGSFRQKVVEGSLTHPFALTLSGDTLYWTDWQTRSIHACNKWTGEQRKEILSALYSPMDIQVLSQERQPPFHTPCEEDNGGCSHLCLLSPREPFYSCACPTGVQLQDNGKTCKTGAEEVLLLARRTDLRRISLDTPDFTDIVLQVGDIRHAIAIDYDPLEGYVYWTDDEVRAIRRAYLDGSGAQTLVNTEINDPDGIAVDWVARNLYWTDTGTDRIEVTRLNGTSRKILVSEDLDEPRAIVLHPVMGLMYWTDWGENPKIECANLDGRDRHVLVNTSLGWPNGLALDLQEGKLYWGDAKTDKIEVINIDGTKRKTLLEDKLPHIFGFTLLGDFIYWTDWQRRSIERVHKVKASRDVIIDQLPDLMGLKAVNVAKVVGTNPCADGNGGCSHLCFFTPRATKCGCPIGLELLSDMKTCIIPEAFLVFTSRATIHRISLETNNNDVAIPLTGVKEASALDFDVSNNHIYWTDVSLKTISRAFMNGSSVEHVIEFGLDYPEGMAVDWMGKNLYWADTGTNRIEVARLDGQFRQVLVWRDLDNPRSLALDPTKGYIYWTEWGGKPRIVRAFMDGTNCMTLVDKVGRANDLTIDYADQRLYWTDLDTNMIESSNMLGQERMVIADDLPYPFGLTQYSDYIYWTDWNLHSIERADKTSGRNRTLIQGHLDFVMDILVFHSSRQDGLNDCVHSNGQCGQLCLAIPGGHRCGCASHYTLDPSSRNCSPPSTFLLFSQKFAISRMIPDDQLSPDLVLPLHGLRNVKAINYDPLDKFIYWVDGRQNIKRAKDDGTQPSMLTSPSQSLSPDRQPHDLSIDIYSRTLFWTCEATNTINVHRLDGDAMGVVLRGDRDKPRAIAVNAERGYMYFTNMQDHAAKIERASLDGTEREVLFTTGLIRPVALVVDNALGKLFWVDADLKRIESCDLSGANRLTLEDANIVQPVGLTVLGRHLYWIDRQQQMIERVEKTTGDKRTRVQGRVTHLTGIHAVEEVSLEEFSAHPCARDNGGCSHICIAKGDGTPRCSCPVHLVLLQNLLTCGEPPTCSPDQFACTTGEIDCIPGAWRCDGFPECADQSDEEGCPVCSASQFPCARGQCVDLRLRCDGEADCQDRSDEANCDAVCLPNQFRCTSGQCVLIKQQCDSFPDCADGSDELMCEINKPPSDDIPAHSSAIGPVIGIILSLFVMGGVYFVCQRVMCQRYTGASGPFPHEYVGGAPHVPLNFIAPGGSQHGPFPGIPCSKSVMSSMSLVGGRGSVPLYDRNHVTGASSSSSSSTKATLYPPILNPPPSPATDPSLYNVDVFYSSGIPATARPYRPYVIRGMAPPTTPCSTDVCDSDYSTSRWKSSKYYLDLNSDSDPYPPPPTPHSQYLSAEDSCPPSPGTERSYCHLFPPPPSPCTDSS
T2 sequence (O88572 20-1613): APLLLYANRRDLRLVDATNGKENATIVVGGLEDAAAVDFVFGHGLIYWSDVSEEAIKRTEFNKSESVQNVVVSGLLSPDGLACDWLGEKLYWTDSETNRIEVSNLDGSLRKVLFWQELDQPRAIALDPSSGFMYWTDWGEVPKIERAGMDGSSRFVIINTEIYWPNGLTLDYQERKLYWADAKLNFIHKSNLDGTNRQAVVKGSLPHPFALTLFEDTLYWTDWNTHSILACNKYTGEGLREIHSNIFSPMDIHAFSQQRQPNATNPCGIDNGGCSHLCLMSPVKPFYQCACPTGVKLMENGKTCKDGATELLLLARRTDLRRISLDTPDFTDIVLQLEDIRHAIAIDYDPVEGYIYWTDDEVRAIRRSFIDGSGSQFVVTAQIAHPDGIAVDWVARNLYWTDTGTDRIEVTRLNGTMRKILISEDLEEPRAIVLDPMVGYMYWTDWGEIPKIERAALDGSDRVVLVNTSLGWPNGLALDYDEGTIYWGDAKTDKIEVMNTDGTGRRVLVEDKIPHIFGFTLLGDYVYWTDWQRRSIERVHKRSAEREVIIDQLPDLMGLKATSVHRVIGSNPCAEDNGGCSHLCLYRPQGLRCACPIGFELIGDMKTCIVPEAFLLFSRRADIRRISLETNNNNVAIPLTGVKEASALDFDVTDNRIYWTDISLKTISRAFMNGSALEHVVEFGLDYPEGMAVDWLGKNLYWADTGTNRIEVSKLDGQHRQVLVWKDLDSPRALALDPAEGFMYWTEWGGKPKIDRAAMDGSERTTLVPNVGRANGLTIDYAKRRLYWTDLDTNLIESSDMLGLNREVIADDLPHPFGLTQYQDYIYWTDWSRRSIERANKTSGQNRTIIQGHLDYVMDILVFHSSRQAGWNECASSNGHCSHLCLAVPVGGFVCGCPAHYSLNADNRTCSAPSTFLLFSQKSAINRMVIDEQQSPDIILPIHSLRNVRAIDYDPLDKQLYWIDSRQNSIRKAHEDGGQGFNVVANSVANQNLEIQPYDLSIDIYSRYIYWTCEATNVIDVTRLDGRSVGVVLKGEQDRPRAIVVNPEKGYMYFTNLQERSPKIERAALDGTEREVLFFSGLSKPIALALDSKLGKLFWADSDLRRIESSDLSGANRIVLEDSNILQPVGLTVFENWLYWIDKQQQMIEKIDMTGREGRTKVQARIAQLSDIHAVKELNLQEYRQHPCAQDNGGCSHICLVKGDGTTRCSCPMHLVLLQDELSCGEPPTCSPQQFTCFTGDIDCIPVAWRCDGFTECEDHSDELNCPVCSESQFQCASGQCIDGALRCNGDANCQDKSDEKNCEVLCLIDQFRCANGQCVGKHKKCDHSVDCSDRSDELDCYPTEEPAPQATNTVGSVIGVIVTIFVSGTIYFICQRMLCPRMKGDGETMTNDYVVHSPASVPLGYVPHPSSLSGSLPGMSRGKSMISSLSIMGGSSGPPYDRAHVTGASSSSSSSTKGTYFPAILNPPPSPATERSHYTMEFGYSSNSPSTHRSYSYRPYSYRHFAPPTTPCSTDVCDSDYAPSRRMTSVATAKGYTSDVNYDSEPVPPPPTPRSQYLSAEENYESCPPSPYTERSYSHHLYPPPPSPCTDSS

B1: recombinant protein Dkk2C (amino acids Met172-Ile259 of mouse Dkk2) with N-terminal S tag and thrombin cleavage site (ligand)
chain: MPHIKGHEGDPCLRSSDCIDGFCCARHFWTKICKPVLHQGEVCTKQRKKGSHGLEIFQRCDCAKGLSCKVWKDATYSSKARLHVCQKI
notes: Expressed in E. coli; Detected in kidney lysate with anti-S-tag antibodies, so the S tag was still on the protein; also called Dkk2-C2; D2C2; not shown: N-terminal S tag; thrombin cleavage site between the S tag and Dkk2C
On to B1, for which the binding result in experiment [1] and in experiment [2] was “binds” throughout.
